{"source": "patent US20220276241A1", "about": "(TRUSTEES OF INDIANA UNIVERSITY, published 2022)", "binders": {"B1": {"name": "Fab N2 (Fab, V domains shown)", "VH": "EVQLVESGGGLVQPGGSLRLSCAASGFNFSSSIHWVRQAPGKGLEWVASISSSSGSTSYADSVKGRFTISADTSKNTAYLQMNSLRAEDTAVYYCARQWSSVMEWYIGLDYWGQGTLVTVSS", "VL": "DIQMTQSPSSLSASVGDRVTITCRASQSVSSAVAWYQQKPGKAPKLLIYSASSLYSGVPSRFSGSRSGTDFTLTISSLQPEDFATYYCQQSSSSLITFGQGTKVEIKR"}}, "molecular_target": "T1, PhnD E177NΔ (E. coli, UniProt P16682 27-329, acrylodan on Cys 126)", "T1 chain": "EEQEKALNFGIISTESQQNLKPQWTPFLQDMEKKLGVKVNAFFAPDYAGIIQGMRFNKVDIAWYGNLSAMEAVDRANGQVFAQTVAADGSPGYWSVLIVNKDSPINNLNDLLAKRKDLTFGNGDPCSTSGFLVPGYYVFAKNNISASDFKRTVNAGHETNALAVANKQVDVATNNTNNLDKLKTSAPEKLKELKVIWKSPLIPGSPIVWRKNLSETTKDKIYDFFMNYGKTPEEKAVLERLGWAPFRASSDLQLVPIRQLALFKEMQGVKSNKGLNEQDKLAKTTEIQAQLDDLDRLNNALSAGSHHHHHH", "experiment": "cell-based or functional assay"}
{"binder": "B1", "values": [{"measurement": "Kd of the PhnD mutant for glyphosate in the presence of Fab N2 (fluorescence titration)", "result": 450, "unit": "nM"}, {"measurement": "fold improvement of the Kd for glyphosate on adding Fab N2, compared to the mutant in the absence of Fab N2", "result": "~18", "unit": "fold"}]}
